# According to paper PMC8230800, “Interaction of Temporin-L Analogues with the E. coli FtsZ Protein” (Antibiotics, 2021):
# Ends that are not written are not given here.
# B1: Escherichia coli FtsZ protein (enzyme, E. coli, UniProt P0A9A6 1-383, looked up)
# chain: MFEPMELTNDAVIKVIGVGGGGGNAVEHMVRERIEGVEFFAVNTDAQALRKTAVGQTIQIGSGITKGLGAGANPEVGRNAADEDRDALRAALEGADMVFIAAGMGGGTGTGAAPVVAEVAKDLGILTVAVVTKPFNFEGKKRMAFAEQGITELSKHVDSLITIPNDKLLKVLGRGISLLDAFGAANDVLKGAVQGIAELITRPGLMNVDFADVRTVMSEMGYAMMGSGVASGEDRAEEAAEMAISSPLLEDIDLSGARGVLVNITAGFDLRLDEFETVGNTIRAFASDNATVVIGTSLDPDMNDELRVTVVATGIGMDKRPEITLVTNKQVQQPVMDRYQQHGMAPLTQEQKPVAKVVNDNAPQTAKEPDYLDIPAFLRKQAD
# notes: also called recombinant FtsZ; source: E. coli BL21, overexpressed and purified as described previously [7]
# Columns and labels:
# [1] = target: T1, FtsZ (recombinant E. coli FtsZ) (Escherichia coli, UniProt P0A9A6); assay: Fluorescence binding experiment (spectrofluorimetric titration); conditions: FtsZ 12 μM, peptide 1 to 180 μM, 20 °C, excitation 280 nm, emission 347 nm, one site-specific binding fit, in duplicate; read-out: Kd of FtsZ-peptide complex
# T1 construct: made in house; host or cells: E. coli BL21
# Method: Right panel (d–f): Diagram plots extrapolated from fluorescence data. The experiments were performed in duplicate and the standard deviation is reported as error bars.
# (§1) Recombinant E. coli FtsZ was overexpressed and purified from E. coli BL21 strain as described previously. The purity of the protein was analyzed by SDS-PAGE 12.5% and its primary structure was validated by MALDI mapping strategy on a 5800 MALDI-TOF/TOF instrument (ABI Sciex, Foster City, CA, USA). The concentration of purified FtsZ was determined by Bradford’s method, using BSA as a standard. The protein was stored at −80 °C.
# Fluorescence experiments were performed using a Fluoromax-4 spectrofluorometer from Horiba Scientific, using 1 cm optical path-length quartz cell under controlled temperature conditions (Peltier control system at 20 °C). The sample was analyzed, monitoring the fluorescence intensity of aromatic residues with an excitation wavelength of 280 nm. The wavelength range explored was 295–500 nm. […] All experiments were repeated in duplicate. The change in the fluorescence intensity of the reaction set was fitted into “one site-specific binding” equation of GraphPad Prism 5 (GraphPad Software, San Diego, CA, USA).
# [2] = target: T1, FtsZ (recombinant E. coli FtsZ); assay: GTPase activity assay (BIOMOL Green Pi release); assay type: biochemical; conditions: 35 µM peptide, GTP substrate, 25 mM PIPES/NaOH pH 6.8
# Method: The putative effect of the two TL analogues on FtsZ GTPase activity was evaluated by enzymatic assays.
# The reaction was performed for 10 min and the Pi release was determined by measuring the absorbance at 620 nm following 25 min incubation. (b) Lineweaver−Burk plots from which the KM constants were calculated. (c) Calculated KM constants and Vmax for the enzymatic assays. The experiment was performed in duplicate and presented as mean ± standard error.
# as §1
# The amount of Pi released during the assembly of FtsZ was measured using BIOMOL Green phosphate reagent (Biomol, Milan, Italy) as described earlier. […] The reaction was performed for 10 min and stopped by addition of 100 µL BIOMOL Green reagent. The Pi release was determined after incubation at 25 °C for 25 min by measuring the absorbance at 620 nm. The background was subtracted from all the readings. The experiment was performed in duplicate. […]
# [3] = target: B1; assay: other fluorescence titration; intrinsic fluorescence of FtsZ (12 µM), excitation 280 nm, emission 347 nm, 20 °C, peptide from 1 to 180 µM, fitted to 'one site-specific binding', duplicate; conditions: both partners purified
# [4] = target: the molecule itself; assay: co-sedimentation; polymerization assay: FtsZ 12 µM in 25 mM PIPES/NaOH pH 6.8, 1 mM GTP, 25 °C 1 h, without or with 10, 30, 50, 70 µM peptide; centrifugation 14,000 rpm 60 min, pellet on SDS-PAGE, densitometry
molecule,measurement,setting,value
FVKWFKKFLTRILF [TRILF],Kd,[1],4.3 ± 0.2 µM
Magainin-2,effect on FtsZ GTPase activity (in words),[2],no effect on the GTP activity
"FVKWFKKFLTRIL (Temporin-L with Q3K, S6K and G10T; Designed from the docking model of FtsZ with TL) [TRIL (Temporin-L analogue)]",Kd,[3],21.4 ± 1.1 µM
B1,binding result,[4],binds
"FVQWFSKFLGRIL (Temporin-L, amphibian antimicrobial peptide, 13 residues; also called TL; native TL) [Native Temporin L]",Kd,[3],11 ± 1 µM
